Article PMC10786891, “Massively parallel profiling of RNA-targeting CRISPR-Cas13d”

T1: EsCas13d, nuclease-dead (Eubacterium siraeum, UniProt B0MS50, R295A;H300A;R849A;H854A)
T1 sequence: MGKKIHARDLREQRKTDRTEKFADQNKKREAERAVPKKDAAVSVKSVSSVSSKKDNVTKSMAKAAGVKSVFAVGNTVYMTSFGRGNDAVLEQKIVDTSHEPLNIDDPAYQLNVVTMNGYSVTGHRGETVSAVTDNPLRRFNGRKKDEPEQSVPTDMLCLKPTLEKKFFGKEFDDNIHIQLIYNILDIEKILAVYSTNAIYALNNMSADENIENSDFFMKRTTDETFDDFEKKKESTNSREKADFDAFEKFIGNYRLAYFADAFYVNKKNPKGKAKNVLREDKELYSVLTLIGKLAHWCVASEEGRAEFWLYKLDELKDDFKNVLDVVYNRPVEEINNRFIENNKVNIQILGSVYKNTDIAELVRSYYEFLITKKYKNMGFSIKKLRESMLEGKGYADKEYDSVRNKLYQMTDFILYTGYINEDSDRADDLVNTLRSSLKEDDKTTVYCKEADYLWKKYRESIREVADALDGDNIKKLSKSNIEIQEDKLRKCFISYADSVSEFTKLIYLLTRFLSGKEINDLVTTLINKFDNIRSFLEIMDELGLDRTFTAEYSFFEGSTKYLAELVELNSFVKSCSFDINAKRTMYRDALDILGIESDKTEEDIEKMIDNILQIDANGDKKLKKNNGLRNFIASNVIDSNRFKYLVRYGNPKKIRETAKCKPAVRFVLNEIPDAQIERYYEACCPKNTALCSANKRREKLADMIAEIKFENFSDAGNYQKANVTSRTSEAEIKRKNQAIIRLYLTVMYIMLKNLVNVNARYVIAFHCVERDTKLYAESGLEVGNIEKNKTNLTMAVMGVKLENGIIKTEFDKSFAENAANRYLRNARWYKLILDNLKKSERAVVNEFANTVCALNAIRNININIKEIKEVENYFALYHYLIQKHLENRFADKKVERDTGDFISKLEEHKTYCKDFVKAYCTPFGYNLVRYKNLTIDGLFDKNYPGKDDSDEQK


These binders were tested against T1, EsCas13d, nuclease-dead (assay: crRNA (strand 1, pre-loaded); Mg2+; 40 mM Tris-HCl pH 7.5, 150 mM NaCl, 6 mM MgCl2, 1 mM DTT, 0.1% Tween-20, 0.2 mg/ml BSA; 25 C; 10 min per concentration, then washed). Details: tags: His6-TwinStrep-SUMO cleaved; N-terminal SNAP kept (SNAP-Surface 488); label: 3' end held by stalled T7 RNA polymerase.

Binder | Kd [nM]
target 1 insG 3' of 3 (mixed) RNA 1: CACCCGUGCAAAAAUGCAGGGGUCUAAAACUGAGCGGAUAACCUCUCUAUGG RNA 2: GGGAAUGGAUCCACAUCUACGAAUUCGUACCAUAGAGAGGUUAUCCGCUGCACCGAGAUCGGAAGAGCACACGU | 7.3 ± 0.6
target 1 G5C,C22U (mixed) RNA 1: CACCCGUGCAAAAAUGCAGGGGUCUAAAACUGAGCGGAUAACCUCUCUAUGG RNA 2: GGGAAUGGAUCCACAUCUACGAAUUCGUAUCAUAGAGAGGUUAUCCCCUCACCGAGAUCGGAAGAGCACACGU | 22.6 ± 2.9
target 1 insG 3' of 19,insG 3' of 3 (mixed) RNA 1: CACCCGUGCAAAAAUGCAGGGGUCUAAAACUGAGCGGAUAACCUCUCUAUGG RNA 2: GGGAAUGGAUCCACAUCUACGAAUUCGUACCAUGAGAGAGGUUAUCCGCUGCACCGAGAUCGGAAGAGCACACGU | 41 ± 2.4
target 1 insU 3' of 12,insC 3' of 12 (mixed) RNA 1: CACCCGUGCAAAAAUGCAGGGGUCUAAAACUGAGCGGAUAACCUCUCUAUGG RNA 2: GGGAAUGGAUCCACAUCUACGAAUUCGUACCAUAGAGAGGUCUUAUCCGCUCACCGAGAUCGGAAGAGCACACGU | 27.6 ± 2.9
target 3 insU 3' of 16 (mixed) RNA 1: CACCCGUGCAAAAUUGCAGGGGUCUAAAACGACCUGAAUAUUUCAGAUCAAA RNA 2: GGGAAUGGAUCCACAUCUACGAAUUCGUUUUUGAUCUUGAAAUAUUCAGGUCUGCAGAUCGGAAGAGCACACGU | 64 ± 8.5
target 3 insA 3' of 21,insC 3' of 21 (mixed) RNA 1: CACCCGUGCAAAAUUGCAGGGGUCUAAAACGACCUGAAUAUUUCAGAUCAAA RNA 2: GGGAAUGGAUCCACAUCUACGAAUUCGUUUUACUGAUCUGAAAUAUUCAGGUCUGCAGAUCGGAAGAGCACACGU | 47 ± 11.5
target 3 insU 3' of 11,insU 3' of 6 (mixed) RNA 1: CACCCGUGCAAAAUUGCAGGGGUCUAAAACGACCUGAAUAUUUCAGAUCAAA RNA 2: GGGAAUGGAUCCACAUCUACGAAUUCGUUUUUGAUCUGAAAUUAUUCUAGGUCUGCAGAUCGGAAGAGCACACGU | 95 ± 14.5
target 3 G4A,U22A (mixed) RNA 1: CACCCGUGCAAAAUUGCAGGGGUCUAAAACGACCUGAAUAUUUCAGAUCAAA RNA 2: GGGAAUGGAUCCACAUCUACGAAUUCGUUAUUGAUCUGAAAUAUUCAAGUCUGCAGAUCGGAAGAGCACACGU | 5.71 ± 0.47
target 3 insC 3' of 3 (mixed) RNA 1: CACCCGUGCAAAAUUGCAGGGGUCUAAAACGACCUGAAUAUUUCAGAUCAAA RNA 2: GGGAAUGGAUCCACAUCUACGAAUUCGUUUUUGAUCUGAAAUAUUCAGGCUCUGCAGAUCGGAAGAGCACACGU | 19.4 ± 2.05
target 3 C6U,A18G (mixed) RNA 1: CACCCGUGCAAAAUUGCAGGGGUCUAAAACGACCUGAAUAUUUCAGAUCAAA RNA 2: GGGAAUGGAUCCACAUCUACGAAUUCGUUUUUGGUCUGAAAUAUUUAGGUCUGCAGAUCGGAAGAGCACACGU | 20.3 ± 2.65
target 3 G4U,G19U (mixed) RNA 1: CACCCGUGCAAAAUUGCAGGGGUCUAAAACGACCUGAAUAUUUCAGAUCAAA RNA 2: GGGAAUGGAUCCACAUCUACGAAUUCGUUUUUUAUCUGAAAUAUUCAUGUCUGCAGAUCGGAAGAGCACACGU | 77.5 ± 10
target 3 insA 3' of 6,insA 3' of 1 (mixed) RNA 1: CACCCGUGCAAAAUUGCAGGGGUCUAAAACGACCUGAAUAUUUCAGAUCAAA RNA 2: GGGAAUGGAUCCACAUCUACGAAUUCGUUUUUGAUCUGAAAUAUUCAAGGUCAUGCAGAUCGGAAGAGCACACGU | 53 ± 18
target 3 del1,del22 (mixed) RNA 1: CACCCGUGCAAAAUUGCAGGGGUCUAAAACGACCUGAAUAUUUCAGAUCAAA RNA 2: GGGAAUGGAUCCACAUCUACGAAUUCGUUUUGAUCUGAAAUAUUCAGGUUGCAGAUCGGAAGAGCACACGU | 29 ± 6
target 3 insG 3' of 7,insC 3' of 2 (mixed) RNA 1: CACCCGUGCAAAAUUGCAGGGGUCUAAAACGACCUGAAUAUUUCAGAUCAAA RNA 2: GGGAAUGGAUCCACAUCUACGAAUUCGUUUUUGAUCUGAAAUAUUGCAGGUCCUGCAGAUCGGAAGAGCACACGU | 88 ± 17.5
target 3 insA 3' of 22,insU 3' of 22 (mixed) RNA 1: CACCCGUGCAAAAUUGCAGGGGUCUAAAACGACCUGAAUAUUUCAGAUCAAA RNA 2: GGGAAUGGAUCCACAUCUACGAAUUCGUUUAUUUGAUCUGAAAUAUUCAGGUCUGCAGAUCGGAAGAGCACACGU | 14.6 ± 1.45
target 3 insU 3' of 11,insC 3' of 3 (mixed) RNA 1: CACCCGUGCAAAAUUGCAGGGGUCUAAAACGACCUGAAUAUUUCAGAUCAAA RNA 2: GGGAAUGGAUCCACAUCUACGAAUUCGUUUUUGAUCUGAAAUUAUUCAGGCUCUGCAGAUCGGAAGAGCACACGU | 58 ± 9.5
target 3 insA 3' of 8,insU 3' of 5 (mixed) RNA 1: CACCCGUGCAAAAUUGCAGGGGUCUAAAACGACCUGAAUAUUUCAGAUCAAA RNA 2: GGGAAUGGAUCCACAUCUACGAAUUCGUUUUUGAUCUGAAAUAUAUCAUGGUCUGCAGAUCGGAAGAGCACACGU | 33.9 ± 3.75
target 3 insC 3' of 3,insG 3' of 1 (mixed) RNA 1: CACCCGUGCAAAAUUGCAGGGGUCUAAAACGACCUGAAUAUUUCAGAUCAAA RNA 2: GGGAAUGGAUCCACAUCUACGAAUUCGUUUUUGAUCUGAAAUAUUCAGGCUCGUGCAGAUCGGAAGAGCACACGU | 27.1 ± 7.05
target 3 insA 3' of 6,insG 3' of 1 (mixed) RNA 1: CACCCGUGCAAAAUUGCAGGGGUCUAAAACGACCUGAAUAUUUCAGAUCAAA RNA 2: GGGAAUGGAUCCACAUCUACGAAUUCGUUUUUGAUCUGAAAUAUUCAAGGUCGUGCAGAUCGGAAGAGCACACGU | 32 ± 11
target 3 insC 3' of 3,insA 3' of 1 (mixed) RNA 1: CACCCGUGCAAAAUUGCAGGGGUCUAAAACGACCUGAAUAUUUCAGAUCAAA RNA 2: GGGAAUGGAUCCACAUCUACGAAUUCGUUUUUGAUCUGAAAUAUUCAGGCUCAUGCAGAUCGGAAGAGCACACGU | 83 ± 17
target 3 G4A,U7G (mixed) RNA 1: CACCCGUGCAAAAUUGCAGGGGUCUAAAACGACCUGAAUAUUUCAGAUCAAA RNA 2: GGGAAUGGAUCCACAUCUACGAAUUCGUUUUUGAUCUGAAAUAUGCAAGUCUGCAGAUCGGAAGAGCACACGU | 30.2 ± 3.35
target 3 insG 3' of 5,insC 3' of 4 (mixed) RNA 1: CACCCGUGCAAAAUUGCAGGGGUCUAAAACGACCUGAAUAUUUCAGAUCAAA RNA 2: GGGAAUGGAUCCACAUCUACGAAUUCGUUUUUGAUCUGAAAUAUUCAGGCGUCUGCAGAUCGGAAGAGCACACGU | 7.65 ± 1.2
target 3 C6G,U22C (mixed) RNA 1: CACCCGUGCAAAAUUGCAGGGGUCUAAAACGACCUGAAUAUUUCAGAUCAAA RNA 2: GGGAAUGGAUCCACAUCUACGAAUUCGUUCUUGAUCUGAAAUAUUGAGGUCUGCAGAUCGGAAGAGCACACGU | 36.5 ± 6
target 3 A5C,U7A (mixed) RNA 1: CACCCGUGCAAAAUUGCAGGGGUCUAAAACGACCUGAAUAUUUCAGAUCAAA RNA 2: GGGAAUGGAUCCACAUCUACGAAUUCGUUUUUGAUCUGAAAUAUACCGGUCUGCAGAUCGGAAGAGCACACGU | 77.5 ± 13.5
